Measured values from patent US20220332795A1 (ARO BIOTHERAPEUTICS, published 2022).
Changes are numbered by the printed parent chain.

B1: SEQ ID NO 221 (designed binder, not shown: small tags and cut ends)
chain: MLPAPKNLVVSRVTEDSARLSWTAPDAAFDSFFIGYLEPQPPGEAIFLDVPGSERSYDLTGLKPGTEYNVTIQGVKGGFPSPLTAFFTT
B2: SEQ ID NO 205 (designed binder, not shown: small tags and cut ends)
chain: MLPAPKNLVVSRVTEDSARLSWTAPDAAFDSFFIGYLEPQPPGEAILLGVPGSERSYDLTGLKPGTEYNVTIQGVKGGFPSMPLHPLVALFTT
B3: SEQ ID NO 216 (designed binder, not shown: small tags and cut ends)
chain: MLPAPKNLVVSRVTEDSARLSWTAPDAAFDSFYIAYAEPRPDGEAISLSVPGSERSYDLTGLKPGTEYSVLIHGVKGGLLSSPPKFTT
B4: SEQ ID NO 238 (designed binder, not shown: small tags and cut ends)
chain: B3 chain with A24T, S47R, S49Q, P84L, K85G
B5: SEQ ID NO 203 (designed binder, not shown: small tags and cut ends)
chain: MLPAPKNLVVSRVTEDSARLSWTAPDAAFDSFFIGYLEPQPPGEAIVLLVPGSERSYDLTGLKPGTEYNVTIQGVKGGFPSVPLAAFFTT
B6: SEQ ID NO 235 (designed binder, not shown: small tags and cut ends)
chain: B5 chain with V47Q, L49T, V82L, A85S, F87D
B7: SEQ ID NO 208 (designed binder, not shown: small tags and cut ends)
chain: B5 chain with L49A, V82Y, A85V, F87A
B8: SEQ ID NO 223 (designed binder, not shown: small tags and cut ends)
chain: B5 chain with V47G, L49A, A85Q, F87N
B9: SEQ ID NO 222 (designed binder, not shown: small tags and cut ends)
chain: B5 chain with L49D, V82H, F87A
B10: SEQ ID NO 210 (designed binder, not shown: small tags and cut ends)
chain: B5 chain with V47N, L49Q, V82F, A85S, F87V
B11: SEQ ID NO 231 (designed binder, not shown: small tags and cut ends)
chain: B5 chain with V47H, L49Y, V82D, A85D, F87V
B12: SEQ ID NO 204 (designed binder, not shown: small tags and cut ends)
chain: MLPAPKNLVVSRVTEDSARLSWTAPDAAFDSFFIGYLEPQPPGEAILLWVPGSERSYDLTGLKPGTEYNVTIQGVKGGFPSQFTT
B13: SEQ ID NO 232 (designed binder, not shown: small tags and cut ends)
chain: B12 chain with L47Y, W49D, Q82T
B14: ABX1100 (designed binder)
chain: MLPAPKNLVVSRVTEDSARLSWTAPDAAFDSFYIAYAEPRPDGEAILLQVPGSCRSYDLTGLKPGTEYSVLIHGVKGGLLSSPLTAIFTT
modifications: siRNA pair with linker (attachment residue not stated for this molecule)
notes: FN3 domain-siRNA conjugate; also called CD71 FN3 domain siRNA conjugate

The binders below were run against T1, human CD71 extracellular domain (human, UniProt P02786 89-760, biotinylated) (assay: solution ELISA screen (luminescence)).
T1 construct: extracellular domain; also called hCD71; huCD71 ECD
T1 sequence (P02786 other isoform, or with tags, fused parts or gaps): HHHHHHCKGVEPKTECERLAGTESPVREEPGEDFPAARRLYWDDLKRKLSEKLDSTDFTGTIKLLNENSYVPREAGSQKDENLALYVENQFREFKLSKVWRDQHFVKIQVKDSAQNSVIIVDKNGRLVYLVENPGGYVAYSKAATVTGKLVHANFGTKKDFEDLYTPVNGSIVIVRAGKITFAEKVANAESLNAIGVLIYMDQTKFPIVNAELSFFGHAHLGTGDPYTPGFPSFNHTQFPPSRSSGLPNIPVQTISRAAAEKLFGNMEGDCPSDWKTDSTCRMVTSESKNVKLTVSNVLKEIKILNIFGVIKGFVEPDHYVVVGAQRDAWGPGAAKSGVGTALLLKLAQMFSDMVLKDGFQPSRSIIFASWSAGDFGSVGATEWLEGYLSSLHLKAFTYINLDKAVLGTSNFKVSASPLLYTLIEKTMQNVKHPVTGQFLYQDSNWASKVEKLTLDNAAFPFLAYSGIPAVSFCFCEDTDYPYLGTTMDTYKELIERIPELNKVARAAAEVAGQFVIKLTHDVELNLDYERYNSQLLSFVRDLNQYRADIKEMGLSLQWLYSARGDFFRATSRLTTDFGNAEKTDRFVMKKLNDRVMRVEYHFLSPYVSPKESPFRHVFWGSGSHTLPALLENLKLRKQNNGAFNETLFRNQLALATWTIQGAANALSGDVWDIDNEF

Binder | RLU
B1 | 966000 RLU
B2 | 2.81e+06 RLU
B3 | 4.15e+06 RLU
B4 | 3.07e+06 RLU
B5 | 2.38e+06 RLU
B6 | 943000 RLU
B7 | 3e+06 RLU
B8 | 1.93e+06 RLU
B9 | 1.47e+06 RLU
B10 | 2.41e+06 RLU
B11 | 2.32e+06 RLU
B12 | 3.29e+06 RLU
B13 | 1.08e+06 RLU

These binders were tested against T2, CD71 apical domain (human, UniProt P02786 189-383, limits assumed) (assay: solution ELISA screen (luminescence)).
T2 construct: domain: apical domain
T2 sequence (P02786 189-383 limits assumed): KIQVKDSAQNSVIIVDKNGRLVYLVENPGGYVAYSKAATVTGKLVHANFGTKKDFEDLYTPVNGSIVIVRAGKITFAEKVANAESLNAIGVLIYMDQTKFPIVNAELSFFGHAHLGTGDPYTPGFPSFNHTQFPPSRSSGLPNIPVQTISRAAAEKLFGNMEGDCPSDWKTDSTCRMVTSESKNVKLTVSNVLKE

Binder | RLU
B1 | 31800 RLU
B2 | 150000 RLU
B3 | 142000 RLU
B4 | 112000 RLU
B5 | 5.69e+06 RLU
B6 | 1.67e+06 RLU
B7 | 3.7e+06 RLU
B8 | 3.6e+06 RLU
B9 | 1.07e+06 RLU
B10 | 4.12e+06 RLU
B11 | 6.83e+06 RLU
B12 | 6.35e+06 RLU
B13 | 95400 RLU

What follows are binders tested against T3, human CD71 on cells (human, UniProt P02786 1-760) (assay: Membrane Proteome Array, flow cytometry on QT6 cells).
T3 construct: whole, on cells; also called the receptor
T3 sequence (P02786 whole entry): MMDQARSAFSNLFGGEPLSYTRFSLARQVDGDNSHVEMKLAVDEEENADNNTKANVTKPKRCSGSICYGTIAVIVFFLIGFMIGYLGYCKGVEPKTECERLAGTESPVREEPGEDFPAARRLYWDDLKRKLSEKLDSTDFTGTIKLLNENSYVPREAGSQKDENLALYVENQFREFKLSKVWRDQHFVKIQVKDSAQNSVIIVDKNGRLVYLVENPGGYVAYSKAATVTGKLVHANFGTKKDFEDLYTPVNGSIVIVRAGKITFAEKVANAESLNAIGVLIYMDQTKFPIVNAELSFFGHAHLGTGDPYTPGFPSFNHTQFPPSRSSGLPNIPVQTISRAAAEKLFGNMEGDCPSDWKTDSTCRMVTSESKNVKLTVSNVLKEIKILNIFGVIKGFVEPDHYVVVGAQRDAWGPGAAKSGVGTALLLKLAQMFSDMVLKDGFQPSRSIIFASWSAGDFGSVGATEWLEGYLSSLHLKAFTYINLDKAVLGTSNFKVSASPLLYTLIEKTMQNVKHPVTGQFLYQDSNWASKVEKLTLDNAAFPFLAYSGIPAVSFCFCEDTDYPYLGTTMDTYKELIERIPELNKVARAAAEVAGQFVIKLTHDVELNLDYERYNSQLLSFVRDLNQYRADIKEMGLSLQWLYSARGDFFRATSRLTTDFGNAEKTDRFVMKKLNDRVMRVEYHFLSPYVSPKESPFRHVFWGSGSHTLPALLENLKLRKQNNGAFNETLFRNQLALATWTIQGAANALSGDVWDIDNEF

Binder | binding result
B14 | binds

Each binder was assayed against T1, human CD71 extracellular domain (assay: solution ELISA screen, signal ratio to HSA control).

Binder | hCD71:HSA
B1 | 16.4 ratio
B2 | 18.1 ratio
B3 | 21.6 ratio
B4 | 31 ratio
B5 | 91.6 ratio
B6 | 39.5 ratio
B7 | 184 ratio
B8 | 105 ratio
B9 | 94.5 ratio
B10 | 49.7 ratio
B11 | 112 ratio
B12 | 164 ratio
B13 | 14.3 ratio

The binders below were run against T2, CD71 apical domain (assay: solution ELISA screen, signal ratio to HSA control).

Binder | apical domain:HSA
B1 | 0.5 ratio
B2 | 1 ratio
B3 | 0.7 ratio
B4 | 1.1 ratio
B5 | 219 ratio
B6 | 70.1 ratio
B7 | 226 ratio
B8 | 197 ratio
B9 | 69 ratio
B10 | 85 ratio
B11 | 331 ratio
B12 | 317 ratio
B13 | 1.3 ratio
